According to article PMC9482650, “Quantitative fragmentomics allow affinity mapping of interactomes” (Nature Communications, 2022):

T1: APBA2_1, Q99767
T1 sequence (Q99767 563-664, limits assumed, looked up): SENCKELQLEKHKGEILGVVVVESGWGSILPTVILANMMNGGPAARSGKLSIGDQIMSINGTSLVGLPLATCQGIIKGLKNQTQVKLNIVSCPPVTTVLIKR

T2: DFNB31_1, Q9P202
T2 sequence (Q9P202 135-233, limits assumed, looked up): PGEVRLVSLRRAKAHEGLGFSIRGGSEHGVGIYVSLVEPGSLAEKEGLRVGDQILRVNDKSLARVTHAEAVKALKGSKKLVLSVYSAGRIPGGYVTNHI

T3: DVL3, Q92997
T3 sequence (Q92997 244-331, limits assumed, looked up): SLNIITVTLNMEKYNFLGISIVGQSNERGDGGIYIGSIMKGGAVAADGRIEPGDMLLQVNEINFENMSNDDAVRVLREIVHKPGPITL

T4: GRIP1_2, Q9Y3R0
T4 sequence (Q9Y3R0 145-248, limits assumed, looked up): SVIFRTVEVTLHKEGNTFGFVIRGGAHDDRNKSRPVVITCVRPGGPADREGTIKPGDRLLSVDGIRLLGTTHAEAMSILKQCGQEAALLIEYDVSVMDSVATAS

T5: GRIP1_3, Q9Y3R0
T5 sequence (Q9Y3R0 247-346, limits assumed, looked up): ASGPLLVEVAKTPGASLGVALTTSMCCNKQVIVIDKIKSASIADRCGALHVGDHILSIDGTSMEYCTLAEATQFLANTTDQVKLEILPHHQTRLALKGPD

T6: LRRC7, Q96NW7
T6 sequence (Q96NW7 1440-1537, limits assumed, looked up): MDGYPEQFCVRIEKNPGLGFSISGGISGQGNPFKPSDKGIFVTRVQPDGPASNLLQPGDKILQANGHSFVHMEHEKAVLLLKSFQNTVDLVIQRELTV

T7: MPDZ_12, O75970
T7 sequence (O75970 1857-1958, limits assumed, looked up): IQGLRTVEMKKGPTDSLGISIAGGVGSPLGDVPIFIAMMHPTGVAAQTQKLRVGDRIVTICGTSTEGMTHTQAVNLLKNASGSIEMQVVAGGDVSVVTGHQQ

T8: PDZRN3_1, Q9UPQ7
T8 sequence (Q9UPQ7 244-349, limits assumed, looked up): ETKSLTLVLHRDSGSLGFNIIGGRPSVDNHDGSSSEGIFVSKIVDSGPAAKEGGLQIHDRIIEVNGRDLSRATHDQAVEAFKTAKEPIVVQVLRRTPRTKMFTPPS

T9: RADIL, Q96JH8
T9 sequence (Q96JH8 971-1071, limits assumed, looked up): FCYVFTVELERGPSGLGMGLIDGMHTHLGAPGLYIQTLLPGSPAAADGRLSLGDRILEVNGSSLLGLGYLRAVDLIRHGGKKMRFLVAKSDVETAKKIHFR

T10: RHPN1, Q8TCX5
T10 sequence (Q8TCX5 508-602, limits assumed, looked up): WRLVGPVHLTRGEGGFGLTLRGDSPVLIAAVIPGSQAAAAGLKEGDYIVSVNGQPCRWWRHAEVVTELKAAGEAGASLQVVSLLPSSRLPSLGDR

T11: SNTB1, Q13884
T11 sequence (Q13884 107-205, limits assumed, looked up): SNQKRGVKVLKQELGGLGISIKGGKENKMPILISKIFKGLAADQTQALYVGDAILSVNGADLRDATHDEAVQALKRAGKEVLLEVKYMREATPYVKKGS

T12: SNTG2, Q9NY99
T12 sequence (Q9NY99 68-166, limits assumed, looked up): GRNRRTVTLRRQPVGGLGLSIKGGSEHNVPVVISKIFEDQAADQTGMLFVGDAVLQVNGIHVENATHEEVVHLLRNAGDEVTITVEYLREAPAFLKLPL


What was measured:
Experiment in all cases: holdup assay
Set-up in all cases: key: below the threshold = too weak to quantify, mostly under pKd 3.1 to 4
Conditions in all cases: plain residues with an end cap or a label only (N-terminal biotin on a linker: ado-ado)
AHNAK1, Q09666 = target: AHNAK1, Q09666
AHNAK1, Q09666, sequence (Q09666 4-100): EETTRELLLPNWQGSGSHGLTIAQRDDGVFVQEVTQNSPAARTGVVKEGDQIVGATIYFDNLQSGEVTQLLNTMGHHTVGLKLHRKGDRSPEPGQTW

APBA2_1, Q99767 = target: T1, APBA2_1, Q99767
ARHGEF12, Q9NZN5-2 = target: ARHGEF12, Q9NZN5-2
ARHGEF12, Q9NZN5-2, sequence (Q9NZN5 other isoform, or with tags, fused parts or gaps): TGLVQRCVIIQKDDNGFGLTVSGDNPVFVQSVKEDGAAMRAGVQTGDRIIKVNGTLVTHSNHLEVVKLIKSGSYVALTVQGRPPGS

DFNB31_1, Q9P202 = target: T2, DFNB31_1, Q9P202
DLG1_2, Q12959 = target: DLG1_2, Q12959
DLG1_2, Q12959, sequence (Q12959 314-412): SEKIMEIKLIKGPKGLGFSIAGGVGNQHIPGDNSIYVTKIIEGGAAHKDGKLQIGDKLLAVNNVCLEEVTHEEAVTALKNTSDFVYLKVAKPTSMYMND

DLG2_3, Q15700 = target: DLG2_3, Q15700
DLG4_3, P78352 = target: DLG4_3, P78352
DLG4_3, P78352, sequence (P78352 306-403): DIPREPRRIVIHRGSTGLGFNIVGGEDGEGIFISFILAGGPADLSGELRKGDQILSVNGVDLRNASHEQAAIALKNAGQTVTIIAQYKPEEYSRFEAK

DVL3, Q92997 = target: T3, DVL3, Q92997
GRIP1_2, Q9Y3R0 = target: T4, GRIP1_2, Q9Y3R0
GRIP1_3, Q9Y3R0 = target: T5, GRIP1_3, Q9Y3R0
Inadl_10, Q8NI35 = target: Inadl_10, Q8NI35
Inadl_10, Q8NI35, sequence (Q8NI35 1673-1763): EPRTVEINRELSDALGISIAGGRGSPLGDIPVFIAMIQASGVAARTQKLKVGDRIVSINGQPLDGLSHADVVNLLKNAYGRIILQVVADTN

Inadl_4, Q8NI35 = target: Inadl_4, Q8NI35
Inadl_4, Q8NI35, sequence (Q8NI35 547-651): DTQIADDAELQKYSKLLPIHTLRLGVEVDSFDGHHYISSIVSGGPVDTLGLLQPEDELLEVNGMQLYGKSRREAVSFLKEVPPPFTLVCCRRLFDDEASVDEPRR

LRRC7, Q96NW7 = target: T6, LRRC7, Q96NW7
MAGI2_3, Q86UL8 = target: MAGI2_3, Q86UL8
MAGI2_3, Q86UL8, sequence (Q86UL8 600-682): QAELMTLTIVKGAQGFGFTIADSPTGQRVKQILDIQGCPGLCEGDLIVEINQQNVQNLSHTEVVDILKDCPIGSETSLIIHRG

MAGI2_5, Q86UL8 = target: MAGI2_5, Q86UL8
MAGI2_5, Q86UL8, sequence (Q86UL8 915-1017): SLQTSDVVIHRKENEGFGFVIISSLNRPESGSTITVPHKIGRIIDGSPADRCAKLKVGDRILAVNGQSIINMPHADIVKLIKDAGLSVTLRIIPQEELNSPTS

MPDZ_12, O75970 = target: T7, MPDZ_12, O75970
NHERF4_2, Q86UT5 = target: NHERF4_2, Q86UT5
NHERF4_2, Q86UT5, sequence (Q86UT5 220-308): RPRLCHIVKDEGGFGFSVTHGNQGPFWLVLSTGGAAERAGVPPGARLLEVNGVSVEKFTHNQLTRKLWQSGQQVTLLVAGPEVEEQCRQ

PARD3_3, Q8TEW0 = target: PARD3_3, Q8TEW0
PARD3_3, Q8TEW0, sequence (Q8TEW0 582-685): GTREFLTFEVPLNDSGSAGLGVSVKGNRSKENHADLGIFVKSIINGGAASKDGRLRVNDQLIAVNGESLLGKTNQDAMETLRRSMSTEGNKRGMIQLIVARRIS

PDZRN3_1, Q9UPQ7 = target: T8, PDZRN3_1, Q9UPQ7
RADIL, Q96JH8 = target: T9, RADIL, Q96JH8
RHPN1, Q8TCX5 = target: T10, RHPN1, Q8TCX5
SCRIB_1, Q14160 = target: SCRIB_1, Q14160
SCRIB_1, Q14160, sequence (Q14160 718-814): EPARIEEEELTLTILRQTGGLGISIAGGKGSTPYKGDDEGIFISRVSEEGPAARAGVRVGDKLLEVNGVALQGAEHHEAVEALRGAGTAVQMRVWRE

SCRIB_3, Q14160 = target: SCRIB_3, Q14160
SCRIB_3, Q14160, sequence (Q14160 999-1103): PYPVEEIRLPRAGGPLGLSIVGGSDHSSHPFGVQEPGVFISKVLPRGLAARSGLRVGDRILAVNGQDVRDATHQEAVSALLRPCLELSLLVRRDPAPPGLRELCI

SNTB1, Q13884 = target: T11, SNTB1, Q13884
SNTG2, Q9NY99 = target: T12, SNTG2, Q9NY99

Row | pKd (AHNAK1, Q09666) | pKd (APBA2_1, Q99767) | pKd (ARHGEF12, Q9NZN5-2) | pKd (DFNB31_1, Q9P202) | pKd (DLG1_2, Q12959) | pKd (DLG2_3, Q15700) | pKd (DLG4_3, P78352) | pKd (DVL3, Q92997) | pKd (GRIP1_2, Q9Y3R0) | pKd (GRIP1_3, Q9Y3R0) | pKd (Inadl_10, Q8NI35) | pKd (Inadl_4, Q8NI35) | pKd (LRRC7, Q96NW7) | pKd (MAGI2_3, Q86UL8) | pKd (MAGI2_5, Q86UL8) | pKd (MPDZ_12, O75970) | pKd (NHERF4_2, Q86UT5) | pKd (PARD3_3, Q8TEW0) | pKd (PDZRN3_1, Q9UPQ7) | pKd (RADIL, Q96JH8) | Binder | other results
1 | below the threshold | below the threshold | 3.58 | below the threshold | 4.23 | below the threshold | 3.65 | below the threshold | below the threshold | below the threshold | below the threshold | below the threshold | below the threshold | below the threshold | below the threshold | below the threshold | below the threshold | below the threshold | below the threshold | below the threshold | KEKASTETEC [TRPM1, Q7Z4N2] | pKd (RHPN1, Q8TCX5): below the threshold; pKd (SCRIB_1, Q14160): 4.31; pKd (SCRIB_3, Q14160): 4.23; pKd (SNTB1, Q13884): 4.17; pKd (SNTG2, Q9NY99): below the threshold
2 | below the threshold | below the threshold | below the threshold | below the threshold | 3.64 | 3.82 | below the threshold | below the threshold | below the threshold | below the threshold | below the threshold | below the threshold | below the threshold | below the threshold | below the threshold | below the threshold | below the threshold | below the threshold | below the threshold | below the threshold | QKASRNESTF [POLR1D, P0DPB6] | pKd (RHPN1, Q8TCX5): below the threshold; pKd (SCRIB_1, Q14160): 3.55; pKd (SCRIB_3, Q14160): 4.12; pKd (SNTB1, Q13884): below the threshold; pKd (SNTG2, Q9NY99): below the threshold
3 | below the threshold | below the threshold | below the threshold | below the threshold | below the threshold | 3.64 | below the threshold | below the threshold | below the threshold | below the threshold | below the threshold | below the threshold | below the threshold | below the threshold | below the threshold | 3.73 | below the threshold | below the threshold | below the threshold | below the threshold | KPDKQEEFYA [SDC3, O75056] | pKd (RHPN1, Q8TCX5): below the threshold; pKd (SCRIB_1, Q14160): below the threshold; pKd (SCRIB_3, Q14160): below the threshold; pKd (SNTB1, Q13884): below the threshold; pKd (SNTG2, Q9NY99): below the threshold
4 | below the threshold | below the threshold | 4.28 | below the threshold | below the threshold | below the threshold | below the threshold | below the threshold | below the threshold | below the threshold | below the threshold | below the threshold | below the threshold | below the threshold | below the threshold | below the threshold | below the threshold | below the threshold | 3.56 | below the threshold | RDYTQSSSSL [GRM5, P41594] | pKd (RHPN1, Q8TCX5): 3.51; pKd (SCRIB_1, Q14160): below the threshold; pKd (SCRIB_3, Q14160): 4.05; pKd (SNTB1, Q13884): below the threshold; pKd (SNTG2, Q9NY99): below the threshold
5 | below the threshold | below the threshold | 3.57 | below the threshold | below the threshold | below the threshold | below the threshold | below the threshold | below the threshold | below the threshold | below the threshold | below the threshold | below the threshold | below the threshold | below the threshold | 3.47 | below the threshold | 4.09 | below the threshold | below the threshold | DSEEELPTRL [GRK6, P43250] | pKd (RHPN1, Q8TCX5): 3.55; pKd (SCRIB_1, Q14160): 3.53; pKd (SCRIB_3, Q14160): 3.53; pKd (SNTB1, Q13884): below the threshold; pKd (SNTG2, Q9NY99): 3.57
